The values that follow are results of earlier work, collected in US12077586B2, “Bispecific antibodies for use in the treatment of hematological malignancies” (LAVA THERAPEUTICS N.V., priority 2018, dated 2024).

Data set [1] addresses T1, complete Vγ9Vδ2 TCR (Homo sapiens, UniProt A0JD36+Q99603, T7A).
T1 construct: host or cells: γδ T-cells expressing the complete Vγ9Vδ2 TCR
The conditions noted are these: Mean Fluorescence Index class; cited from earlier work.

Data set [2] deals with γδ T-cells not expressing any of the Vγ9Vδ2 TCR chains. The note with it: Mean Fluorescence Index class; cells not expressing any Vγ9Vδ2 TCR chain; cited from earlier work.
The target in data set [3] is T2, Vγ9 chain (Homo sapiens, UniProt Q99603, T7A).
T2 construct: host or cells: γδ T-cells expressing a Vγ9 chain paired with a non-Vδ2 chain
T2 sequence (Q99603 with tags, fused parts or gaps T7A limits assumed): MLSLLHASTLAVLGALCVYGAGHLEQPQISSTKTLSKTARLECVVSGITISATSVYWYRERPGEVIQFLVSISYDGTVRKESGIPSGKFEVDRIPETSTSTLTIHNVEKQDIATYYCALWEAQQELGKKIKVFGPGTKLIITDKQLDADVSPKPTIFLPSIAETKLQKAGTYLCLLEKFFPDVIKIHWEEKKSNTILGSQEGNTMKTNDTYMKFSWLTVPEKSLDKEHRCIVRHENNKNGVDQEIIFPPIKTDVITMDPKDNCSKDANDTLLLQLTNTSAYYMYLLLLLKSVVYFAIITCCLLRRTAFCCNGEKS
T2 sequence (P07766 23-207 partner): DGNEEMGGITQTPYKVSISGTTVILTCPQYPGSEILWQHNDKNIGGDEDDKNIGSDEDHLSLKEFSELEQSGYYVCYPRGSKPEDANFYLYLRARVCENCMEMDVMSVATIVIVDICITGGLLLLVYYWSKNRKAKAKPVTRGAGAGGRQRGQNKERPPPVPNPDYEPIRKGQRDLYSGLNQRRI
T2 sequence (P09693 23-182 partner): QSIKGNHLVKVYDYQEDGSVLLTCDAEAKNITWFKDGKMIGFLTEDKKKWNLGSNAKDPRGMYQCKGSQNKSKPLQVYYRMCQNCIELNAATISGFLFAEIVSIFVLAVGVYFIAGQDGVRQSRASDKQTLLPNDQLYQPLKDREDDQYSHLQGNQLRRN
T2 sequence (P04234 22-171 partner): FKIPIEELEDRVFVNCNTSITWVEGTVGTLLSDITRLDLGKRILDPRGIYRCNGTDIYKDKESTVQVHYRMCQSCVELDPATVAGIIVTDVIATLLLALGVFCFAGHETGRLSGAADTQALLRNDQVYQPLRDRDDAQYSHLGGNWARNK
T2 sequence (P20963 22-164 partner): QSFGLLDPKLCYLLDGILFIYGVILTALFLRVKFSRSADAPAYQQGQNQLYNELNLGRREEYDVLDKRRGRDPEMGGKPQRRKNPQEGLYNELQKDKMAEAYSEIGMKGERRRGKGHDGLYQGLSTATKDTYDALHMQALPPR
The note with it: Mean Fluorescence Index class; γδ T-cells expressing Vγ9 chain paired with non Vδ2 chain; cited from earlier work.

The target of data set [4] is T3, Vδ2 chain (Homo sapiens, UniProt A0JD36).
T3 construct: host or cells: γδ T-cells expressing a Vδ2 chain paired with a non-Vγ9 chain
T3 sequence (A0JD36 with tags, fused parts or gaps): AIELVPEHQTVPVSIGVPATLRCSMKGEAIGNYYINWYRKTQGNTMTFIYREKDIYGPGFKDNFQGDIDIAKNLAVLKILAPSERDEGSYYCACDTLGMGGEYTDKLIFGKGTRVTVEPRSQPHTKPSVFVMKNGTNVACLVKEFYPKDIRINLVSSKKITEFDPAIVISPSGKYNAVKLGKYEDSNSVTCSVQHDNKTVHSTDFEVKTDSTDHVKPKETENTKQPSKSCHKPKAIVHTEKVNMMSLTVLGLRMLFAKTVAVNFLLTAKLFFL
T3 sequence (P07766 23-207 partner): as the sequence (P07766 23-207 partner) above
T3 sequence (P09693 23-182 partner): as the sequence (P09693 23-182 partner) above
T3 sequence (P04234 22-171 partner): as the sequence (P04234 22-171 partner) above
T3 sequence (P20963 22-164 partner): as the sequence (P20963 22-164 partner) above
The note with it: Mean Fluorescence Index class; γδ T-cells expressing Vδ2 chain paired with non Vγ9 chain; cited from earlier work.

T1 sequence (Q99603 with tags, fused parts or gaps T7A limits assumed): as the sequence (Q99603 with tags, fused parts or gaps T7A limits assumed) above
T1 sequence (A0JD36 with tags, fused parts or gaps, stated change not applied): as the sequence (A0JD36 with tags, fused parts or gaps) above
T1 sequence (P07766 23-207 partner): as the sequence (P07766 23-207 partner) above
T1 sequence (P09693 23-182 partner): as the sequence (P09693 23-182 partner) above
T1 sequence (P04234 22-171 partner): as the sequence (P04234 22-171 partner) above
T1 sequence (P20963 22-164 partner): as the sequence (P20963 22-164 partner) above

B1: 6E4: Vγ9Vδ2-TCR binding VHH, SEQ ID NO: 152 (protein)
VHH: EVQLVESGGGLVQAGGSLRLSCAASGFTFDDYCIAWFRQAPGKEREPVSCITTSDGSTYYADSVKGRFTISSDNAKNTVYLQMNRLKPEDTAVYYCAAYFGYGCYGGAQDYRAMDYWGKGTLVTVSS
modifications: antibody sequence
B1: in data set [1], the “Binding, Vγ9Vδ2+” value is given as “++ (“++” indicates an MFI above 20)”. Further, the “Binding, Vγ9Vδ2−” value in data set [2] is reported as “− (“−” indicates a Mean Fluorescence Index (MFI) below 1.5)”. The “Binding, Vγ9+” value in data set [3] was “− (“−” indicates a Mean Fluorescence Index (MFI) below 1.5)”. Further, the “Binding, Vδ2+” value in data set [4] is listed as “++ (“++” indicates an MFI above 20)”.

B2: 6A1: Vγ9Vδ2-TCR binding VHH, SEQ ID NO: 151 (protein)
VHH: EVQLVESGGGLVQAGGSLRLSCAASGRTFSNYAMGWFRQAPGKEREFVATISWSGGSTYYADSVKGRFTISRDNAKNTVYLQMNSLKPEDTAVYYCAAAFSGSDYANTKKEVEYDYWGQGTQVTVSS
modifications: antibody sequence
In the case of B2, in data set [1], the “Binding, Vγ9Vδ2+” value is “++ (“++” indicates an MFI above 20)”. Besides, in data set [2], the “Binding, Vγ9Vδ2−” value is on record as “− (“−” indicates a Mean Fluorescence Index (MFI) below 1.5)”. Moreover, the “Binding, Vγ9+” value in data set [3] is reported as “− (“−” indicates a Mean Fluorescence Index (MFI) below 1.5)”. The “Binding, Vδ2+” value in data set [4] is recorded as “++ (“++” indicates an MFI above 20)”.

B3: 5F5: Vγ9Vδ2-TCR binding VHH, SEQ ID NO: 150 (protein)
VHH: EVQLVESGGGLVQAGGSLRLSCAASGRTFSNYAMGWFRQAPGKEREFVAAISWSGGSTYYADSVKGRFTISRDNAKNTVYLQMNSLKPEDTAVYYCAAMFSGSESQLVVVITNLYEYDYWGQGTQVTVSS
modifications: antibody sequence
As for B3, the “Binding, Vγ9Vδ2+” value in data set [1] was “++ (“++” indicates an MFI above 20)”. Also, in data set [2], the “Binding, Vγ9Vδ2−” value is given as “− (“−” indicates a Mean Fluorescence Index (MFI) below 1.5)”. Besides, in data set [3], the “Binding, Vγ9+” value was “− (“−” indicates a Mean Fluorescence Index (MFI) below 1.5)”. For the same molecule, the “Binding, Vδ2+” value in data set [4] was “++ (“++” indicates an MFI above 20)”.

B4: 5C1: Vγ9Vδ2-TCR binding VHH, SEQ ID NO: 142 (protein)
VHH: EVQLVESGGGLVQPGGSLRLSCAASGSIFSNYAMAWFRQAPEKERDFLAAVSWSGGRTYYADSVKGRFTISRDNAKNTVNLQMNSLKPEDTAVYYCAASLSCSGPGCSLEEYDYWGQGTQVTVSS
modifications: antibody sequence
Take B4: in data set [1], the “Binding, Vγ9Vδ2+” value was “++ (“++” indicates an MFI above 20)”. In addition, the “Binding, Vγ9Vδ2−” value in data set [2] is recorded as “− (“−” indicates a Mean Fluorescence Index (MFI) below 1.5)”. The “Binding, Vγ9+” value in data set [3] is given as “++ (“++” indicates an MFI above 20)”. The “Binding, Vδ2+” value in data set [4] was “+/− (“+/−” indicates an MFI of between 1.5 and 4.5)”.

B5: 5G3: Vγ9Vδ2-TCR binding VHH, SEQ ID NO: 141 (protein)
VHH: EVQLVESGGGLVQAGGSLRLSCAASGRTFSSYAMGWFRQAPGKEREFVAAVSWSGGSTYYADSVKGRFTISRDNARNTVYLQMNSLNPEDTAVYYCAASQDCSGPGCYTNEYDSWGQGTQVTVSS
modifications: antibody sequence
Take B5: in data set [1], the “Binding, Vγ9Vδ2+” value is “++ (“++” indicates an MFI above 20)”. The “Binding, Vγ9Vδ2−” value in data set [2] is recorded as “− (“−” indicates a Mean Fluorescence Index (MFI) below 1.5)”. The “Binding, Vγ9+” value in data set [3] is “++ (“++” indicates an MFI above 20)”. In addition, in data set [4], the “Binding, Vδ2+” value is “− (“−” indicates a Mean Fluorescence Index (MFI) below 1.5)”.

B6: 6E3: Vγ9Vδ2-TCR binding VHH, SEQ ID NO: 144 (protein)
VHH: EVQLVESGGGLVQAGGSLRLSCAASGRPFSNYGMGWFRQAPGKKREFVAGISWSGGSTDYADSVKGRLTISRDNAKNTVYLQMNSLKPEDTAVYYCAAVFSGAETAYYPSDDYDYWGQGTQVTVSS
modifications: antibody sequence
Turning to B6, in data set [1], the “Binding, Vγ9Vδ2+” value is “++ (“++” indicates an MFI above 20)”. The “Binding, Vγ9Vδ2−” value in data set [2] is “− (“−” indicates a Mean Fluorescence Index (MFI) below 1.5)”. In data set [3], the “Binding, Vγ9+” value was “− (“−” indicates a Mean Fluorescence Index (MFI) below 1.5)”. In addition, in data set [4], the “Binding, Vδ2+” value is recorded as “++ (“++” indicates an MFI above 20)”.

B7: 6H3: Vγ9Vδ2-TCR binding VHH, SEQ ID NO: 147 (protein)
VHH: EVQLVESGGGLVQAGGSLRLSCAVSGRPFSNYGMGWFRQAPGKEREFVAGITWSGGSTHYADLVKGRFTISRDNAKNTVHLQMNSLKPEDTAVYYCAAVFSGAETAYYPSTEYDYWGQGTQVTVSS
modifications: antibody sequence
Consider B7, for which the “Binding, Vγ9Vδ2+” value in data set [1] is “++ (“++” indicates an MFI above 20)”. In addition, in data set [2], the “Binding, Vγ9Vδ2−” value was “− (“−” indicates a Mean Fluorescence Index (MFI) below 1.5)”. Further, the “Binding, Vγ9+” value in data set [3] is “+/− (“+/−” indicates an MFI of between 1.5 and 4.5)”. The “Binding, Vδ2+” value in data set [4] is given as “++ (“++” indicates an MFI above 20)”.

B8: 6C1: Vγ9Vδ2-TCR binding VHH, SEQ ID NO: 146 (protein)
VHH: EVQLVESGGGLVQAGGSLRLSCAASGRPFSNYGMGWFRQAPGKKRESVAGISWSGGSTDYADSVKGRFTISRDNAKNTVYLQMNSLKPEDTAVYYCAAVFSGAETAYYPSDDYDYWGQGTQVTVSS
modifications: antibody sequence
For the molecule B8, in data set [1], the “Binding, Vγ9Vδ2+” value was “++ (“++” indicates an MFI above 20)”. Also, in data set [2], the “Binding, Vγ9Vδ2−” value is recorded as “− (“−” indicates a Mean Fluorescence Index (MFI) below 1.5)”. In addition, the “Binding, Vγ9+” value in data set [3] is listed as “− (“−” indicates a Mean Fluorescence Index (MFI) below 1.5)”. Besides, the “Binding, Vδ2+” value in data set [4] is recorded as “++ (“++” indicates an MFI above 20)”.

B9: 6G3: Vγ9Vδ2-TCR binding VHH, SEQ ID NO: 148 (protein)
VHH: EVQLVESGGGLVQAGGSLRLSCAASGRPFNNYGMGWFRQAPGKEREFVAGISWSGGSTYYADSVKGRFTISRDNAKNTVYLQMNSLKPEDTAVYYCAAVFSGAETAQYPSYDYDYWGQGTQVTVSS
modifications: antibody sequence
Regarding B9, in data set [1], the “Binding, Vγ9Vδ2+” value is “++ (“++” indicates an MFI above 20)”. The “Binding, Vγ9Vδ2−” value in data set [2] was “− (“−” indicates a Mean Fluorescence Index (MFI) below 1.5)”. Moreover, the “Binding, Vγ9+” value in data set [3] is on record as “− (“−” indicates a Mean Fluorescence Index (MFI) below 1.5)”. For the same molecule, in data set [4], the “Binding, Vδ2+” value is reported as “++ (“++” indicates an MFI above 20)”.

B10: 6H1: Vγ9Vδ2-TCR binding VHH, SEQ ID NO: 140 (protein)
VHH: EVQLVESGGGLVQAGGSLRLSCAATGRTFSEYAMGWFRQAPGKEREFAAAISWTGSKTYYADSVKGRFTISRDNAKNTVYLQMNSLKPEDTAVYYCAASSDCSGPGCHTEEYDYWGQGTQVTVSS
modifications: antibody sequence
On to B10, for which the “Binding, Vγ9Vδ2+” value in data set [1] is on record as “++ (“++” indicates an MFI above 20)”. In data set [2], the “Binding, Vγ9Vδ2−” value is given as “− (“−” indicates a Mean Fluorescence Index (MFI) below 1.5)”. The “Binding, Vγ9+” value in data set [3] was “++ (“++” indicates an MFI above 20)”. Also, the “Binding, Vδ2+” value in data set [4] is “− (“−” indicates a Mean Fluorescence Index (MFI) below 1.5)”.
